From patent US20160046725A1

Legend:
[1] = molecular target: human Axl receptor on human tumor cells (UniProt P30530); assay: cell-based or functional assay
[2] = molecular target: human Axl receptor on human tumor cells (UniProt P30530); assay: flow cytometry on SN12C cells, untreated (No Ab), labelled with 9G4 isotype control
[3] = molecular target: human Axl receptor on human tumor cells (UniProt P30530); assay: flow cytometry on SN12C cells treated 24 h with 9G4, labelled with 9G4 isotype control
[4] = molecular target: human Axl receptor on human tumor cells (UniProt P30530); assay: quantitative flow cytometry (Qifikit) on Calu-1 cells
[5] = molecular target: human Axl receptor on human tumor cells (UniProt P30530); assay: quantitative flow cytometry (Qifikit) on SN12C cells
[6] = molecular target: human Axl receptor on human tumor cells (UniProt P30530); assay: quantitative flow cytometry (Qifikit) on DU-145 cells
[7] = molecular target: human Axl receptor on human tumor cells (UniProt P30530); assay: quantitative flow cytometry (Qifikit) on A431 cells
[8] = molecular target: human Axl receptor on human tumor cells (UniProt P30530); assay: quantitative flow cytometry (Qifikit) on NCI-H125 cells
[9] = molecular target: human Axl receptor on human tumor cells (UniProt P30530); assay: quantitative flow cytometry (Qifikit) on MDA-MB-435S cells
[10] = molecular target: human Axl receptor on human tumor cells (UniProt P30530); assay: flow cytometry on SN12C cells, untreated (No Ab), labelled with MAB154
[11] = molecular target: human Axl receptor on human tumor cells (UniProt P30530); assay: quantitative flow cytometry (Qifikit) on A172 cells
[12] = molecular target: human Axl receptor on human tumor cells (UniProt P30530); assay: quantitative flow cytometry (Qifikit) on MDA-MB-231 cells
[13] = molecular target: human Axl receptor on human tumor cells (UniProt P30530); assay: quantitative flow cytometry (Qifikit) on PC3 cells
[14] = molecular target: human Axl receptor on human tumor cells (UniProt P30530); assay: quantitative flow cytometry (Qifikit) on NCI-H226 cells
[15] = molecular target: human Axl receptor on human tumor cells (UniProt P30530); assay: quantitative flow cytometry (Qifikit) on Panc1 cells
[16] = molecular target: human Axl receptor on human tumor cells (UniProt P30530); assay: quantitative flow cytometry (Qifikit) on MCF7 cells

Sequence of human Axl receptor on human tumor cells (P30530 26-894 D266N): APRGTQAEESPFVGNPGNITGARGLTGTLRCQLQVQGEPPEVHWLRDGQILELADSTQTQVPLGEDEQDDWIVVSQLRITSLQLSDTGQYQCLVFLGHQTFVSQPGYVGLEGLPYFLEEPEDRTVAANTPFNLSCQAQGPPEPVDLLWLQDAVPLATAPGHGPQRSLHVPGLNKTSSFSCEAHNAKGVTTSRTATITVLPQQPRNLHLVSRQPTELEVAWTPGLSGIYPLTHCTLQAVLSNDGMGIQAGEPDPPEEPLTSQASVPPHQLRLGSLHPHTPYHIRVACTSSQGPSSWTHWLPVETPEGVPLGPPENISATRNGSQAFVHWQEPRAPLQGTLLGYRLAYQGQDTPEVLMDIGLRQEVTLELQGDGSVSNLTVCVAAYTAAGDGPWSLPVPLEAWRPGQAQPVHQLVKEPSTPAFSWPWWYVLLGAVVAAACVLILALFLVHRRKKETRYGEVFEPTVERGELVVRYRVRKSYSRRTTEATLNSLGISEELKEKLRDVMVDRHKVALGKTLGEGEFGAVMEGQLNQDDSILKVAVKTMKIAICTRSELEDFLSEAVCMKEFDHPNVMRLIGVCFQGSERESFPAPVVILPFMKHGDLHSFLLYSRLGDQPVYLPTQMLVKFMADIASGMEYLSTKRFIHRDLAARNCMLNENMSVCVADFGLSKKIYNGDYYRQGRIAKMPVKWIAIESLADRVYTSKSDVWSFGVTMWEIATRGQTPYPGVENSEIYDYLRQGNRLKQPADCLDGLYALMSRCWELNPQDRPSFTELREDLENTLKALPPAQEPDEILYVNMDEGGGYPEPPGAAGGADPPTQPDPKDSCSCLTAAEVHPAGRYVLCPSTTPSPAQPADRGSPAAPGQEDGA

% remaining Axl [1]	Δ (MFI No Ab 24 h - MFI Ab 24 h) [1]	MFI at T24 h [2]	MFI at T24 h [3]	ABC (Qifikit) [4]	ABC (Qifikit) [5]	Antigen binding capacity (Qifikit) [5]	ABC (Qifikit) [6]	ABC (Qifikit) [7]	ABC (Qifikit) [8]	ABC (Qifikit) [9]	MFI at T24 h [10]	ABC (Qifikit) [11]	ABC (Qifikit) [12]	ABC (Qifikit) [13]	ABC (Qifikit) [14]	ABC (Qifikit) [15]	ABC (Qifikit) [16]	Substance
117%	-2 MFI	11 MFI	13 MFI															9G4 murine IgG1 isotype control antibody
				> 100000 ABC	> 100000 ABC	> 100000 ABC	55300 ABC	3950 ABC	5540 ABC	17800 ABC	950 MFI	52400 ABC	61200 ABC	8420 ABC	32100 ABC	36800 ABC	71 ABC	MAB154 anti-Axl commercial antibody (R and D Systems)
